B1: Pistol ribozyme (parent)
chain: GGGUCGUUGUUCCAUAAUCGCGUGGAUAUGGCACGCAAGUUUCUACCGGGCACCGUAAAUGUCCGACUGGAGCCGUUCGGGCGGCUAUAAACAGACCUCAGGCCCGAAGCGUGGCGGCACCUGCCGCCGGUGGUAAAAAAGAUCGGAAGAGCACACGUCU

Variants of: B1
Assay: aptazyme ON/OFF ratio, guanine; higher = stronger switching; co-transcriptional cleavage with and without guanine

Row | Variant | aptazyme ON/OFF ratio
1 | GGGUCGAUCCCUCAUAAUCGCGUGGAUAUGGCACGCAAGUUUCUACCGGGCACCGUAAAUGUCCGACUGGAGCCGUUCGGGCGGCUAUAAACAGACCUCAGGCCCGAAGCGUGGCGGCACCUGCCGCCGGUGGUAAAAAAGAUCGGAAGAGCACACGUCU [U7A G9C U10C U11C C12U] | 1.04
2 | GGGUCGAUCCCACAUAAUCGCGUGGAUAUGGCACGCAAGUUUCUACCGGGCACCGUAAAUGUCCGACUGGAGCCGUUCGGGCGGCUAUAAACAGACCUCAGGCCCGAAGCGUGGCGGCACCUGCCGCCGGUGGUAAAAAAGAUCGGAAGAGCACACGUCU [U7A G9C U10C U11C C12A] | 1.01
3 | GGGUCGAUCCCGCAUAAUCGCGUGGAUAUGGCACGCAAGUUUCUACCGGGCACCGUAAAUGUCCGACUGGAGCCGUUCGGGCGGCUAUAAACAGACCUCAGGCCCGAAGCGUGGCGGCACCUGCCGCCGGUGGUAAAAAAGAUCGGAAGAGCACACGUCU [U7A G9C U10C U11C C12G] | 1.03
4 | GGGUCGAUCCGGCAUAAUCGCGUGGAUAUGGCACGCAAGUUUCUACCGGGCACCGUAAAUGUCCGACUGGAGCCGUUCGGGCGGCUAUAAACAGACCUCAGGCCCGAAGCGUGGCGGCACCUGCCGCCGGUGGUAAAAAAGAUCGGAAGAGCACACGUCU [U7A G9C U10C U11G C12G] | 1.1
5 | GGGUCGAUCCGACAUAAUCGCGUGGAUAUGGCACGCAAGUUUCUACCGGGCACCGUAAAUGUCCGACUGGAGCCGUUCGGGCGGCUAUAAACAGACCUCAGGCCCGAAGCGUGGCGGCACCUGCCGCCGGUGGUAAAAAAGAUCGGAAGAGCACACGUCU [U7A G9C U10C U11G C12A] | 1.04
6 | GGGUCGAUCCGAGAUAAUCGCGUGGAUAUGGCACGCAAGUUUCUACCGGGCACCGUAAAUGUCCGACUGGAGCCGUUCGGGCGGCUAUAAACAGACCUCAGGCCCGAAGCGUGGCGGCACCUGCCGCCGGUGGUAAAAAAGAUCGGAAGAGCACACGUCU [U7A G9C U10C U11G C12A C13G] | 1.05
7 | GGGUCGAUCCGAUAUAAUCGCGUGGAUAUGGCACGCAAGUUUCUACCGGGCACCGUAAAUGUCCGACUGGAGCCGUUCGGGCGGCUAUAAACAGACCUCAGGCCCGAAGCGUGGCGGCACCUGCCGCCGGUGGUAAAAAAGAUCGGAAGAGCACACGUCU [U7A G9C U10C U11G C12A C13U] | 1.02
8 | GGGUCGAUCCGAAAUAAUCGCGUGGAUAUGGCACGCAAGUUUCUACCGGGCACCGUAAAUGUCCGACUGGAGCCGUUCGGGCGGCUAUAAACAGACCUCAGGCCCGAAGCGUGGCGGCACCUGCCGCCGGUGGUAAAAAAGAUCGGAAGAGCACACGUCU [U7A G9C U10C U11G C12A C13A] | 1.04
9 | GGGUCGAUCCCGAAUAAUCGCGUGGAUAUGGCACGCAAGUUUCUACCGGGCACCGUAAAUGUCCGACUGGAGCCGUUCGGGCGGCUAUAAACAGACCUCAGGCCCGAAGCGUGGCGGCACCUGCCGCCGGUGGUAAAAAAGAUCGGAAGAGCACACGUCU [U7A G9C U10C U11C C12G C13A] | 1.06
10 | GGGUCGAUCCCGUAUAAUCGCGUGGAUAUGGCACGCAAGUUUCUACCGGGCACCGUAAAUGUCCGACUGGAGCCGUUCGGGCGGCUAUAAACAGACCUCAGGCCCGAAGCGUGGCGGCACCUGCCGCCGGUGGUAAAAAAGAUCGGAAGAGCACACGUCU [U7A G9C U10C U11C C12G C13U] | 1.02
11 | GGGUCGAUCCCGGAUAAUCGCGUGGAUAUGGCACGCAAGUUUCUACCGGGCACCGUAAAUGUCCGACUGGAGCCGUUCGGGCGGCUAUAAACAGACCUCAGGCCCGAAGCGUGGCGGCACCUGCCGCCGGUGGUAAAAAAGAUCGGAAGAGCACACGUCU [U7A G9C U10C U11C C12G C13G] | 1.09
12 | GGGUCGAUCCCAGAUAAUCGCGUGGAUAUGGCACGCAAGUUUCUACCGGGCACCGUAAAUGUCCGACUGGAGCCGUUCGGGCGGCUAUAAACAGACCUCAGGCCCGAAGCGUGGCGGCACCUGCCGCCGGUGGUAAAAAAGAUCGGAAGAGCACACGUCU [U7A G9C U10C U11C C12A C13G] | 1.03
13 | GGGUCGAUCCCAUAUAAUCGCGUGGAUAUGGCACGCAAGUUUCUACCGGGCACCGUAAAUGUCCGACUGGAGCCGUUCGGGCGGCUAUAAACAGACCUCAGGCCCGAAGCGUGGCGGCACCUGCCGCCGGUGGUAAAAAAGAUCGGAAGAGCACACGUCU [U7A G9C U10C U11C C12A C13U] | 1.02
14 | GGGUCGAUCCCAAAUAAUCGCGUGGAUAUGGCACGCAAGUUUCUACCGGGCACCGUAAAUGUCCGACUGGAGCCGUUCGGGCGGCUAUAAACAGACCUCAGGCCCGAAGCGUGGCGGCACCUGCCGCCGGUGGUAAAAAAGAUCGGAAGAGCACACGUCU [U7A G9C U10C U11C C12A C13A] | 1.02
15 | GGGUCGAUCCCCGAUAAUCGCGUGGAUAUGGCACGCAAGUUUCUACCGGGCACCGUAAAUGUCCGACUGGAGCCGUUCGGGCGGCUAUAAACAGACCUCAGGCCCGAAGCGUGGCGGCACCUGCCGCCGGUGGUAAAAAAGAUCGGAAGAGCACACGUCU [U7A G9C U10C U11C C13G] | 1.01
16 | GGGUCGAUCCCCUAUAAUCGCGUGGAUAUGGCACGCAAGUUUCUACCGGGCACCGUAAAUGUCCGACUGGAGCCGUUCGGGCGGCUAUAAACAGACCUCAGGCCCGAAGCGUGGCGGCACCUGCCGCCGGUGGUAAAAAAGAUCGGAAGAGCACACGUCU [U7A G9C U10C U11C C13U] | 1.03
17 | GGGUCGAUCCCCAAUAAUCGCGUGGAUAUGGCACGCAAGUUUCUACCGGGCACCGUAAAUGUCCGACUGGAGCCGUUCGGGCGGCUAUAAACAGACCUCAGGCCCGAAGCGUGGCGGCACCUGCCGCCGGUGGUAAAAAAGAUCGGAAGAGCACACGUCU [U7A G9C U10C U11C C13A] | 1.01
18 | GGGUCGAUCCAUAAUAAUCGCGUGGAUAUGGCACGCAAGUUUCUACCGGGCACCGUAAAUGUCCGACUGGAGCCGUUCGGGCGGCUAUAAACAGACCUCAGGCCCGAAGCGUGGCGGCACCUGCCGCCGGUGGUAAAAAAGAUCGGAAGAGCACACGUCU [U7A G9C U10C U11A C12U C13A] | 1.04

Row | Variant | aptazyme ON/OFF ratio
19 | GGGUCGAUCCAUGAUAAUCGCGUGGAUAUGGCACGCAAGUUUCUACCGGGCACCGUAAAUGUCCGACUGGAGCCGUUCGGGCGGCUAUAAACAGACCUCAGGCCCGAAGCGUGGCGGCACCUGCCGCCGGUGGUAAAAAAGAUCGGAAGAGCACACGUCU [U7A G9C U10C U11A C12U C13G] | 1.08
20 | GGGUCGAUCCAUUAUAAUCGCGUGGAUAUGGCACGCAAGUUUCUACCGGGCACCGUAAAUGUCCGACUGGAGCCGUUCGGGCGGCUAUAAACAGACCUCAGGCCCGAAGCGUGGCGGCACCUGCCGCCGGUGGUAAAAAAGAUCGGAAGAGCACACGUCU [U7A G9C U10C U11A C12U C13U] | 1.06
21 | GGGUCGAUCCCUGAUAAUCGCGUGGAUAUGGCACGCAAGUUUCUACCGGGCACCGUAAAUGUCCGACUGGAGCCGUUCGGGCGGCUAUAAACAGACCUCAGGCCCGAAGCGUGGCGGCACCUGCCGCCGGUGGUAAAAAAGAUCGGAAGAGCACACGUCU [U7A G9C U10C U11C C12U C13G] | 1.04
22 | GGGUCGAUCCCUUAUAAUCGCGUGGAUAUGGCACGCAAGUUUCUACCGGGCACCGUAAAUGUCCGACUGGAGCCGUUCGGGCGGCUAUAAACAGACCUCAGGCCCGAAGCGUGGCGGCACCUGCCGCCGGUGGUAAAAAAGAUCGGAAGAGCACACGUCU [U7A G9C U10C U11C C12U C13U] | 0.994
23 | GGGUCGAUCCCUAAUAAUCGCGUGGAUAUGGCACGCAAGUUUCUACCGGGCACCGUAAAUGUCCGACUGGAGCCGUUCGGGCGGCUAUAAACAGACCUCAGGCCCGAAGCGUGGCGGCACCUGCCGCCGGUGGUAAAAAAGAUCGGAAGAGCACACGUCU [U7A G9C U10C U11C C12U C13A] | 1.05
24 | GGGUCGAUCCACGAUAAUCGCGUGGAUAUGGCACGCAAGUUUCUACCGGGCACCGUAAAUGUCCGACUGGAGCCGUUCGGGCGGCUAUAAACAGACCUCAGGCCCGAAGCGUGGCGGCACCUGCCGCCGGUGGUAAAAAAGAUCGGAAGAGCACACGUCU [U7A G9C U10C U11A C13G] | 1.12
25 | GGGUCGAUCCACUAUAAUCGCGUGGAUAUGGCACGCAAGUUUCUACCGGGCACCGUAAAUGUCCGACUGGAGCCGUUCGGGCGGCUAUAAACAGACCUCAGGCCCGAAGCGUGGCGGCACCUGCCGCCGGUGGUAAAAAAGAUCGGAAGAGCACACGUCU [U7A G9C U10C U11A C13U] | 1.09
26 | GGGUCGAUCCACAAUAAUCGCGUGGAUAUGGCACGCAAGUUUCUACCGGGCACCGUAAAUGUCCGACUGGAGCCGUUCGGGCGGCUAUAAACAGACCUCAGGCCCGAAGCGUGGCGGCACCUGCCGCCGGUGGUAAAAAAGAUCGGAAGAGCACACGUCU [U7A G9C U10C U11A C13A] | 1.07
27 | GGGUCGAUCCCCCAUAAUCGCGUGGAUAUGGCACGCAAGUUUCUACCGGGCACCGUAAAUGUCCGACUGGAGCCGUUCGGGCGGCUAUAAACAGACCUCAGGCCCGAAGCGUGGCGGCACCUGCCGCCGGUGGUAAAAAAGAUCGGAAGAGCACACGUCU [U7A G9C U10C U11C] | 0.989
28 | GGGUCGAUCCGCCAUAAUCGCGUGGAUAUGGCACGCAAGUUUCUACCGGGCACCGUAAAUGUCCGACUGGAGCCGUUCGGGCGGCUAUAAACAGACCUCAGGCCCGAAGCGUGGCGGCACCUGCCGCCGGUGGUAAAAAAGAUCGGAAGAGCACACGUCU [U7A G9C U10C U11G] | 1.02
29 | GGGUCGAUCCAGCAUAAUCGCGUGGAUAUGGCACGCAAGUUUCUACCGGGCACCGUAAAUGUCCGACUGGAGCCGUUCGGGCGGCUAUAAACAGACCUCAGGCCCGAAGCGUGGCGGCACCUGCCGCCGGUGGUAAAAAAGAUCGGAAGAGCACACGUCU [U7A G9C U10C U11A C12G] | 1.1
30 | GGGUCGAUCCAUCAUAAUCGCGUGGAUAUGGCACGCAAGUUUCUACCGGGCACCGUAAAUGUCCGACUGGAGCCGUUCGGGCGGCUAUAAACAGACCUCAGGCCCGAAGCGUGGCGGCACCUGCCGCCGGUGGUAAAAAAGAUCGGAAGAGCACACGUCU [U7A G9C U10C U11A C12U] | 1.04
31 | GGGUCGAUCCAGGAUAAUCGCGUGGAUAUGGCACGCAAGUUUCUACCGGGCACCGUAAAUGUCCGACUGGAGCCGUUCGGGCGGCUAUAAACAGACCUCAGGCCCGAAGCGUGGCGGCACCUGCCGCCGGUGGUAAAAAAGAUCGGAAGAGCACACGUCU [U7A G9C U10C U11A C12G C13G] | 1.16
32 | GGGUCGAUCCAGAAUAAUCGCGUGGAUAUGGCACGCAAGUUUCUACCGGGCACCGUAAAUGUCCGACUGGAGCCGUUCGGGCGGCUAUAAACAGACCUCAGGCCCGAAGCGUGGCGGCACCUGCCGCCGGUGGUAAAAAAGAUCGGAAGAGCACACGUCU [U7A G9C U10C U11A C12G C13A] | 1.16
33 | GGGUCGAUCCAGUAUAAUCGCGUGGAUAUGGCACGCAAGUUUCUACCGGGCACCGUAAAUGUCCGACUGGAGCCGUUCGGGCGGCUAUAAACAGACCUCAGGCCCGAAGCGUGGCGGCACCUGCCGCCGGUGGUAAAAAAGAUCGGAAGAGCACACGUCU [U7A G9C U10C U11A C12G C13U] | 1.25
34 | GGGUCGAUCCAAAAUAAUCGCGUGGAUAUGGCACGCAAGUUUCUACCGGGCACCGUAAAUGUCCGACUGGAGCCGUUCGGGCGGCUAUAAACAGACCUCAGGCCCGAAGCGUGGCGGCACCUGCCGCCGGUGGUAAAAAAGAUCGGAAGAGCACACGUCU [U7A G9C U10C U11A C12A C13A] | 1.07
35 | GGGUCGAUCCAAUAUAAUCGCGUGGAUAUGGCACGCAAGUUUCUACCGGGCACCGUAAAUGUCCGACUGGAGCCGUUCGGGCGGCUAUAAACAGACCUCAGGCCCGAAGCGUGGCGGCACCUGCCGCCGGUGGUAAAAAAGAUCGGAAGAGCACACGUCU [U7A G9C U10C U11A C12A C13U] | 1.03
36 | GGGUCGAUCCAAGAUAAUCGCGUGGAUAUGGCACGCAAGUUUCUACCGGGCACCGUAAAUGUCCGACUGGAGCCGUUCGGGCGGCUAUAAACAGACCUCAGGCCCGAAGCGUGGCGGCACCUGCCGCCGGUGGUAAAAAAGAUCGGAAGAGCACACGUCU [U7A G9C U10C U11A C12A C13G] | 1.06

From the RNAGym collection of RNA variant scans (doi:10.1021/acssynbio.7b00057)
